According to FireProtDB:

B1: L7I|R17V|A28D|A35R|V49I|E91D|L96F|L97H|T99A|E103I|Q165D|V217M|Q222G|K234H|E237D, Q88HV5 (parent)
chain: MPFQQGLLATPVPAHARHLFFTLQSPEALPAALDALLPQVDGKQLLLGVGAPLAKALGREIPGLRPFPLLDAAVENPSTQHALWLWLRGDERGDLLLRTQALEQALAPALSLADSVDGFLHRGGHDLTGYEDGTENPTDEEAVQAAIAADGSSFAAFQLWKHDLQYFKSLPQADQDNIIGRRLSDNEELDDAPASAHVKRTAQESFEPEAFMVRRSVSWADQRGAGLAFVALGKSFEAFEVQLRRMSGLEDGIIDGLYRFSRPLTGGYYWCPPMSETGVDLSPLLRA

Variants of: B1
Settings: Pseudomonas putida (strain ATCC 47054 / DSM 6125 / CFBP 8728 / NCIMB 11950 / KT2440); pH 7.6; Fluorescence spectroscopy; whole UniProt chain shown

Row | Variant | Tm
1 | MPFQQGILATPVPAHAVHLFFTLQSPEDLPAALDRLLPQVDGKQLLLGIGAPLAKALGREIPGLRPFPLLDAAVENPSTQHALWLWLRGDDRGDLFHRAQALIQALAPALSLADSVDGFLHRGGHDLTGYEDGTENPTDEEAVQAAIAADGSSFAAFQLWKHDLDYFKSLPQADQDNIIGRRLSDNEELDDAPASAHVKRTAQESFEPEAFMVRRSMSWADGRGAGLAFVALGHSFDAFEVQLRRMSGLEDGIIDGLYRFSRPLTGGYYWCPPMSETGVDLSPLLRA [L7I R17V A28D A35R V49I E91D L96F L97H T99A E103I Q165D V217M Q222G K234H E237D] | 67 °C
2 | MPFQQGILATPVPAHAVHLFFTLQSPEALPAALDALLPQVDGKQLLLGIGAPLAKALGREIPGLRPFPLLDAAVENPSTQHALWLWLRGDERGDLLLRTQALEQALAPALSLADSVDGFLHRGGHDLTGYEDGTENPTDEEAVQAAIAADGSSFAAFQLWKHDLDYFKSLPQADQDNIIGRRLSDNEELDDAPASAHVKRTAQESFEPEAFMVRRSMSWADGRGAGLAFVALGHSFEAFEVQLRRMSGLEDGIIDGLYRFSRPLTGGYYWCPPMSETGVDLSALLRA [L7I R17V V49I Q165D V217M Q222G K234H P283A] | 73 °C
3 | MPFQQGLLLTPVPAHARHLFFTLQFPEALPAALDALLPQVDGKQLLLGVGAPLVKALGREIPGLRPFPLLDAAVENPSTQHALWLWLRGDERGDLLLRTQALEQALAPALSLADSVDGFLHRGGHDLTGYEDGTENPTGEEAVQAAIAADGSSFAAFQLWKHDLQYFKALPQAEQDNIIGRRLSDNEELDDAPASAHVKRTAQESFEPEAFMVRRSVSWADQRGAGLAFVALGKSFDAFEVQLRRMSGLEDGIIDGLYRFSRPLTGGYYWCPPMSETGVDLSPLLRA [A9L S25F A54V D139G S169A D174E E237D] | 65 °C
4 | MPFQQGILATPVPAHAVHLFFTLQSPEDLPAALDALLPQVDGKQLLLGVGAPLAKALGREIPGLRPFPLLDAAVENPSTQHALWLWLRGDDRGDLFHRAQALIQALAPAFVLADEVDGFRYRDGHDLTGYEDGTENPQDEEAVQAAIADDGSSFAAFQLWKHDLDYFKSLPQADQDNIIGRRLSDNEELDDAPASAHVKRTAQESFEPEAFMVRRSVSWADQRGAGLAFVALGKSFEAFEVQLRRMSGLEDGIIDGLYRFSRPLTGGYYWCPPMSETGVDLSPLLRA [L7I R17V A28D E91D L96F L97H T99A E103I L110F S111V S115E L120R H121Y G123D T138Q A149D Q165D] | 71 °C
5 | MPFQQGILATPVPAHAVHLFFTLQSPEDLPAALDRLLPQVDGKQLLLGVGAPLAKALGREIPGLRPFPLLDAAVENPSTQHALWLWLRGDDRGDLLLRTQALIQALAPAFVLADEVDGFRYRDGHDLTGYEDGTENPQGDEAVEAAIAADGSSFAAFQLWKHDLDYFKSLPQADQDNIIGRRLSDNEELDDAPASAHVKRTAQESFEPEAFMVRRSVSWADQRGAGLAFVALGHSFDAFEVQLRRMSGLEDGIIDGLYRFSRPLTGGYYWCPPMSETGVDLSPLLRA [L7I R17V A28D A35R E91D E103I L110F S111V S115E L120R H121Y G123D T138Q D139G E140D Q144E Q165D K234H E237D] | 73 °C
6 | MPFQQGILATPVPAHAVHLFFTLQSPEDLPAALDRLLPQVDGKQLLLGVGAPLAKALGREIPGLRPFPLLDAAVENPSTQHALWLWLRGDERGDLLLRTQALEQALAPAFVLADEVDGFRYRDGHDLTGYEDGTENPQGDEAVEAAIADDGSSFAAFQLWKHDLDYFKSLPQAEQDNIIGRRLSDNEELDDAPASAHVKRTAQESFEPEAFMVRRSVSWADQRGAGLAFVALGHSFDAFEVQLRRMSGLEDGIIDGLYRFSRPLTGGYYWCPPMSETGVDLSPLLRA [L7I R17V A28D A35R L110F S111V S115E L120R H121Y G123D T138Q D139G E140D Q144E A149D Q165D D174E K234H E237D] | 65 °C
7 | MPFQQGILATPVPAHAVHLFFTLQSPEDLPAALDALLPQVDGKQLLLGIGAPLAKALGREIPGLRPFPLLDAAVENPSTQHALWLWLRGDDRGDLFHRAQALIQALAPAFVLADEVDGFRYRDGHDLTGYEDGTENPQGDEAVEAAIADDGSSFAAFQLWKHDLQYFKSLPQADQDNIIGRRLSDNEELDDAPASAHVKRTAQESFEPEAFMVRRSVSWADQRGAGLAFVALGKSFEAFEVQLRRMSGLEDGIIDGLYRFSRPLTGGYYWCPPMSETGVDLSPLLRA [L7I R17V A28D V49I E91D L96F L97H T99A E103I L110F S111V S115E L120R H121Y G123D T138Q D139G E140D Q144E A149D] | 65 °C
8 | MPFQQGILATPVPAHAVHLFFTLQSPEDLPAALDRLLPQVDGKQLLLGIGAPLAKALGREIPGLRPFPLLDAAVENPSTQHALWLWLRGDDRGDLFHRAQALIQALAPAFVLADEVDGFRYRDGHDLTGYEDGTENPQGDEAVEAAIADDGSSFAAFQLWKHDLDYFKSLPQAEQDNIIGRRLSDNEELDDAPESAHVKRTAQESFEPEAFMVRRSMSWADGRGAGLAFVALGHSFDAFEVQLRRMSGLEDGIIDGLYRFSRPLTGGYYWCPPMSETGVDLSALLRA [L7I R17V A28D A35R V49I E91D L96F L97H T99A E103I L110F S111V S115E L120R H121Y G123D T138Q D139G E140D Q144E A149D Q165D D174E A194E V217M Q222G K234H E237D P283A] | 83 °C
9 | MPFQQGLLLTPVPAHARHLFFTLQSPEALPAALDALLPQVDGKQLLLGVGAPLAKALGREIPGLRPFPLLDAAVENPSTQHALWLWLRGDDRGELLLRTRALEQALAPAFSLADSVDAFRHRGGRDLTGYEDGTENPTGEEAVQAAIALDGSSFVAFQLWKHDLQYFKALPQADQDNIIGRRLSDNEELDDAPASAHVKRTAQESFEPEAFMVRRSMPWADGRGAGLAFVAFGKSFEAFEVQLRRMSGLEDGIIDGLYRFSRPLTGGYYWCPPMSETGLDLSPLLRA [A9L E91D D94E Q100R L110F G118A L120R H125R D139G A149L A155V S169A V217M S218P Q222G L232F V279L] | 69 °C
10 | MPFQQGILATPVPAHAVHLFFTLQSPEALPAALDALLPQVDGKQLLLGIGAPLAKALGREIPGLRPFPLLDAAVENPSTQHALWLWLRGDERGDLLLRTQALEQALAPALSLADSVDGFLHRGGHDLTGYEDGTENPTDEEAVQAAIAADGSSFAAFQLWKHDLDYFKSLPQADQDNIIGRRLSDNEELDDAPASAHVKRTAQESFEPEAFMVRRSMSWADQRGAGLAFVALGHSFDAFEVQLRRMSGLEDGIIDGLYRFSRPLTGGYYWCPPMSETGVDLSALLRA [L7I R17V V49I Q165D V217M K234H E237D P283A] | 68 °C
11 | MPFQQGLLLTPVPAHARHLFFTLQSPEALPAALDALLPQVDGKQLLLGVGAPLAKALGREIPGLRPFPLLDAAVENPSTQHALWLWLRGDERGDLLLRTRALEQALAPAFSLADSVDAFRHRGGRDLTGYEDGTENPTGEEAVQAAIAADGSSFAAFQLWKHDLQYFKSLPQADQDNIIGRRLSDNEELDDAPASAHVKRTAQESFEPEAFMVRRSVSWADQRGAGLAFVAFGKSFEAFEVQLRRMSGLEDGIIDGLYRFSRPLTGGYYWCPPMSETGLDLSPLLRA [A9L Q100R L110F G118A L120R H125R D139G L232F V279L] | 74 °C
